Assay: soluble on expression in E. coli; label from the status in PepcDB or PDB records

For “MKEGDTMSWQTHTVFNQPAPLNNSNLFLSDGALCEAVSREGAGWDSDLLASIGQQLGTAESLELGRLANAHPPELLRYDPQGQRLDDVRFHPAWHLLMQGLCANRVHNLAWEEEARAGSFVARAARFVLHAQVEAGTLCPVTMTFAATPLLLQMLPATFHDWLAPLRSDRYDSHLLPGGQKRGLLIGMGMTEKQGGSDVLSNTTHAERLADDSYRLVGHKWFFSVPQSDAHLVLAQAKGGLSCFFVPRFLPDGQRNSVRLERLKDKLGNRSNASAEVEFQDAIGWRLGEEGEGIRHILKMGGMTRLDCALGSHGLMRRAFSVAIYHAHQRQAFGKPLIDQPLMRQTLSRMALCLEGQTALLFRLARAWEQRREAKEALWARLFTPAAKFAICKLGIPFVAEAMEVLGGMGYCEESELPRLYREMPVNSIWEGSGNIMCLDVLRVLTKQHGVYDVLSEAFAEVKGQDRHYDRAVRQLQQRLRKPDEAMGREITQQLFLLGCGAEMLRHASPPLAQAWCQMMLDTRGEMPLPAQVQNDLLLRATGGLR”, the “soluble on expression in E. coli” value was “not soluble”.

For “SLQKFKWSNIYCKEADCVRILLVADPQILGKTFDTHFYAGLANYDSDRYLAWYYEQAVEHVQPDVIIFLGDLMDEGTDSTEMHFEEYYTRFGAIFPTHPTARSIYIPGDNDIGGEGRQPLNPIAKRRFRQYFSERPAWVINDNLTIYNINRITLEMTLNDPRMVDSTGSDVSDRYLRIFVSHMPVLDVPSSFTYTAIHNLKPNVIFSAHLHVSQFARIHRSRLKTVQYKPLSQDKRTAYKVHSFDLSYHQDTQELLEIIVPTCSYRMSVPDIGYGYAAIDGTTLKYTVLWTTRRFYQLISYV”, the “soluble on expression in E. coli” value was “not soluble”.

For “MSRNQNHEEYQDDTRPLSIEEQRARLRQLIIMGKERGYITYSEINDALPDDMSDADQIDNIVSMISGLGIQVTEHAPDAEDILLSDNAAVTDDDAVEEAEAALSSADSEFGRTTDPVRMYMREMGQVDLLTREDEIIIAKKIENALKNMVQAISACPGSIAEILELIEKIRKDEIRVDEVVEAIIDPNEVLLNELGLGHLETTAPEKPSNDNSDENEDDEESEEDADEISAANLAELKQKVIGHFAQIEKDYKKMIGRLEKHHSRHKDYLAYRDAIANKLLEVRFATRQIDSLSSSLRGKVENIRKLEREIRDICLDRVHMERDYFIQNFLPEITNLEWIEEEIAKGRVWSDALDRFRHAILEKQTELADMEKETRISIEELKEINKNMVSSEKETAAAKQEMIQANLRLVISIAKKYTNRGLQFLDLIQEGNIGLMKAVDKFEYRRGYKFSTYATWWIRQAITRSIADQARTIRIPVHMIETINKMNRISRQHLQETGEEPDSAKLAELMQMPEDKIRKIMKIAKEPISMETPIGDDDDSHLGDFIEDANNVAPADAAMYTSLHEVTKEILESLTPREAKVLRMRFGIDMNTDHTLEEVGRQFDVTRERIRQIEAKALRKLRHPTRSDRLRSFLDSEDSKL”, the “soluble on expression in E. coli” value was “soluble”.

In the case of “MGHHHHHHSHMQTFQLDTERLCQAAKLYQHTKSDFGLNGMIQLSGSCNNMSLSVLGSIGGCAILRLELLEAARLHSSKDSSKSAIYSFRNASSLGREFTHGGELFGPKMESASLSFYGHHGVKYVEAQFVHDSSSKTVHTAAMQPITIPPSCAFDDREANGIVTLSTKTAAALVKWLKQHTKTCQSPVKVSISEILGVMVLSVGDASMTVDVTPVNVSSGKKTRGGNKASDSGTISADATVHVNGHCLIRSLIVCKVPGCTTPRVKFHACGILEVDGAPVKQGELTQVKLSVALLNVDSSTGRVLKEPVVTGASKDRGASKSEDADGSPPVPDHPKESLTSDSDSSVPGPRSTDLSSLTHTPSDRFSSDLRSGCGGQQFLKRPPPKKDREPTTKRPKLHFNHFP”, the “soluble on expression in E. coli” value is reported as “soluble”.

With “MGSDKIHHHHHHMKLYVSFAARIRAMIDEGVLRPGDKIFSVRQASQKYGLSISTVLRGYLLLEQEGIISSHPQSGYYVTPRKRLQRHETSPLSKDINLSEVDASKLVLTTLKSIREFGTVPLGSPFPDPQLFPLKKIHQYEKALTDDEGEWGVLSDLPPGNEMLRQQIARRYLANGMDVSPDDIVITHGATEAITLCLQAVAKAGDVIALESPGYYALAHTVERLGMKVAELRTDPDSGIDLDALRATAGNVRIAAVILTANFQNPLGFVMPDAKKQALVAFLEEQQIPLIEDDVYGELYFSETAPKPAKAFDRSGLVLHCASFSKSLAPGYRVGWTVAGRYRQEVERLMFLNSLSMPSAPQIAIAKFMQRDSFERHLKQLRHTLRSQYVLIRNVIEESFPAGTQLSAPKGGYVIWVNLPAPLDALKLYRAAIDNGITVAPGTIFSRKKDLTHYIRLNFSHLWTLAIEQAVRQVGALACGMLADAGNGEA” the “soluble on expression in E. coli” value was “not soluble”.

For “MGSDKIHHHHHHMHNKFYRGRFAVAPMLDWTTRHCRYFHRQFSQQALLYTEMITAPAILHAKYDLLEYDPAEQPVALQLGGSDPTQLANCAKLVQARGYTEINLNVGCPSDRVQNGMFGACLMANADLVADCIKAMQDVVDIPVTIKHRIGIDTLDSYAFLCDFIDKIQPYSQDFIVHARKAWLSGLSPKENREIPPLDYERVYQLKRDFPQLNISINGGIKTIDEIKQHLTKVDGVMVGREAYQNPALLGEIDQQLFDQNQPLITARIAVENMLPYIEQQLSKGVYLNHIVRHMLGAFQNCKGARQWRRHLSENACKQGAGIEVVEQALRFVTE”, the “soluble on expression in E. coli” value was “not soluble”.

In the case of “MNPKHFIAFSALFAATQAEALPVASVSPDTVTVSPSAPYTDTNGLLTDYGNAAASPWMKKLRSVAQGSGEAFRILQIGDSHTAGDFFTDALRKRLQKTWGDGGIGWVYPANVKGQRMAAVRYNGNWQSLNSRSAAADFPLGGILAQTGSGGSMTLTASDGKTGKQRVSLFAKPLLAEQTLTVNGNTVSANGGGWQVLDTGAALPLAIQTEMPWDIGFINIENPAGGITVSAMGINGAQLTQWSKWRADRMNDLAQTGADLVILSYGTNEAFNNNIDIADTEQKWLDTVRQIRDSLPAAGILIIGAPESLKNTLGVCGTRPVLLTEVQQMQRRVARQGQTMFWSWQNAMGGICSMKNWLNQGWAAKDGVHFSAQGYRRAAEMLADSLEELVRAAAIR”, the “soluble on expression in E. coli” value is reported as “soluble”.

In the case of “MPGAAAKGSELSERIEGFVETLKRGGGQRSSEDMARETLGLLRRLITDHHWNNAGDLMDLIRREGRRMTAAQPSETTVGNMVRRVLKIIREEYGRLHGRSDESDQQESLHKLLTSGGLSEDFSFHFAPLKANIIEAINELLVELEGTMENIAAQALEHIHSNEVIMTIGYSRTVEAFLKEAARKRKFHVIVAECAPFCQGHEMAVNLSKEGIETTVMTDAAIFAVMSRVNKVIIGTKTILANGSLRAVAGTHTLALAAKHHSTPLIVCAPMFKLSPQFPSEEDSFHKFVAPEEVLPFTEGDILEKVSVHCPVFDYVPPDLITLFISNIGGNAPSYIYRLMSELYHPDDHVL”, the “soluble on expression in E. coli” value is reported as “not soluble”.

In the case of “ITDNTLIRNDTGDGDAVYDLVLNADGLDEDYSYQLKVMEEQPSDKQANELFTQAKKEIDDSFCEENQSVEQVRGHVIMKDAYASGAVEAEWTLSDYDVVDINGDVNQDAFEEADDEQGKLISASVELSCGEHRQLYDFSFVVFPDELEAGERLIKDINRHIDSEMSKTGTKKLTLPDEVDGVKLSWSQEKSNTAAKIAMLEVVVIVLLVLEKKEKKKTAQKERNIQLQLEYPEIVSKMAVLMGSGMTVEQAWNRITARYLDERKNNDKNIMPAYEEMLVTEREISDGVTGRKAYAGFAERVKLPCYQKLVRIILQSIHKGSKGVCEMLEKESEDAFDERRLLALKLGEEAGTKM”, the “soluble on expression in E. coli” value is reported as “not soluble”.

In the case of “MIKRTLLLAMLPILAHAEELPAPVKAIEKQGITILKSFEAPGGMKGYLGKYQDMGVTIYLTPDGKHAISGYMYNEKGENLSNALIEKEIYAPAGREMWQKMEKASWILDGKKDAPVVLYVFADPFCPYCKQFWQQARPWVESGKVQLRTLLVGVIKPESPATAAAILAAKDPAKTWHDYEASAGKMKLEVPASIPPAQMKVINQNQQLMDDLGANATPAIYYMNKDKILQQVVGLPEKAQLDAMMGQP”, the “soluble on expression in E. coli” value is reported as “not soluble”.

With “MSKPWLFTVHGTGQPDPLGPGLPADTARDVLDIYRWQPIGNYPAAAFPMWPSVEKGVAELILQIELKLDADPYADFAMAGYSQGAIVVGQVLKHHILPPTGRLHRFLHRLKKVIFWGNPMRQKGFAHSDEWIHPVAAPDTLGILEDRLENLEQYGFEVRDYAHDGDMYASIKEDDLHEYEVAIGRIVMKASGFIGGRDSVVAQLIELGQRPITEGIALAGAIIDALTFFARSRMGDKWPHLYNRYPAVEFLRQI” the “soluble on expression in E. coli” value was “soluble”.

With “MGSSHHHHHHMAYTNTPHNWGIPRPKNETVPDAGKLYTDLLQKNGGFYLGDTKKKDIYLTFDNGYENGYTGKILDVLKEKKVPATFFVTGHYIKTQKDLLLRMKDEGHIIGNHSWSHPDFTAVNDEKLREELTSVTEEIKKVTGQKEVKYVRPPRGVFSERTLALTKEMGYYNVFWSLAFLDWKVDEQRGWQYAHNNVMTMIHPGSILLLHAISKDNAEALAKIIDDLREKGYHFKSLDDLVKSNQP” the “soluble on expression in E. coli” value was “soluble”.

With “MDNGHIEETNNVEIDPATGGAVMSFSYASDFPTLPDAAPASAPTAKQTHVWSRPTLSKSEVNITFRLASDERSNKVKSFGSTSEESKKAQAIATATKTRIELSESKDGELTVVVKGERAKAEEARARIIRDLQTQASREIDIPKDHHGRLIGKEGALLRNLEAETNCRIQIPNRDGPSSKITITGPREGIQRAAAHILAVSEREAKLATEHIVCPKNLVAFVRGPKNETYDRLTQNNGVKINIPPPHVTNEVISVTGEKDGVLRVAAEIRQIIESKKNVSSIQVAVARTQHRYIVGQSRSGIHDVLQKTGCVVEVPAEDSGSDQVTLIGNAQDLAKALALVIERASSVVTQSISAPNWLHKHLIGPKGATLTALVPNRNNVQIEFDNSNQIFLEGSPEEVKLAFEPLSKEVARLQMELAIEKVKVHPTLHRHVIGRGGSLISKIKDQHGVQITIPNEETNSDEIVVEGKKEGVKKAVTEIRAIVTKIENEKSRDIIIPQRLHKLIIGSKGSGVQVIRDSHPNVSVVFPDAKSKSDVVNIRGDKTEVDAVYKKLTALSKEYAENNYQQTVAIFKEFLKHIVGKGGASIRKLRDETETRIDLPESGSDDGKITVTGKQANVEKAVAQLNKIQEELANVAEESIEIPQKVQSRFFGNGRRLISDIEDECGGVHIRFPSEKSESTKVTIRGPAGDVAKAVGLLSALAKDKEENYVEDTVKAKPEFHRFLIGKGGSKIAKLRDTLNVRVMFPKEGDAEKETIHLLGKKEDVPKAKAALEDAIKQLSETVDIKITVDPKYYKNFLARGAALVKEIQEQNGGVVISFPKNGTDSSEVSIRGSKQCVEAAKNRIEDVVEDYEKQITDNVTIPAQFHRGLLAGRGAKIHELQSKYNVSIRFPNNREEGSEGSDQVTVSGRDTKVEEAKEALLAMVPISKVIQLPVDMHRSIIGRGGETVRKLMQDYDVNISIPKDNSSEDITVTGQTENVDQALEALRGKLGEYEAQAEDRKLKQWSMSINVPTDYHQKIIGQRGATITALKEKYGVIINVPREDGNETITIQGYEEKANECAAAIEEMISELRSMFTQEISLDARYHPRLIGQRGKNLKKVMEDYRVEIRLPRQGAEDPNLVVVAGKDENDVYDCIDHLRAEEEEFLLDNVERTQYMSPRQQESNNTRHHQQPTSVQMKGAPWQLDLGSSEQFPDMGPAAGSSAAVGGAGAWGSSRRW” the “soluble on expression in E. coli” value was “not soluble”.

In the case of “MGSDKIHHHHHHMSTEHQLLVGLLKKLKDDALVLPTLPEVAMRVQEVVSRQDSSLKQVADIIGQDAAISARIIKVANSALYSRGNKAESINAAVSRIGLVQIKSITTSVAMEQLFISTNEMVWEVMDEVWKTSIEVTASSCAMLEMYNKRHPTKKLDRDTLTLAGLVHNIGALPVLTEAEVHPELFGRIDDLRSLVRKMQGPIGRAVLKTWDFAPEVMEVVERWADLHYLPEKVTYLDFIRSAAFYTGELRAGEELEERLGVFAQRGLPVTPEDLASDEFINMYHSIMQSYE”, the “soluble on expression in E. coli” value is reported as “not soluble”.

With “TTEENSKSEALLDIPMLEQYLELVGPKLITDGLAVFEKMMPGYVSVLESNLTAQDKKGIVEEGHKIKGAAGSVGLRHLQQLGQQIQSPDLPAWEDNVGEWIEEMKEEWRHDVEVLKAWVAKATKK” the “soluble on expression in E. coli” value was “soluble”.

In the case of “MSVTFPSSGCPSFFNIFYEEGIVMKLTIYYDGQFWVGVVEVVDNGKLRAFRHLFGKEPRDSEVLEFVHNQLLNMMAQAEQEGVRLQGRRQKKINPKRLQRQVSKELKNAGVTSKAQEAIKLELEARKQKKKQIMKEQREHVKEQRYMLKKQKAKKKHRGKLEHHHHHH”, the “soluble on expression in E. coli” value is reported as “soluble”.

Source: the DeepSol protein solubility set
